Biological target: dFMRP (dFmr1-PD) (UniProt Q9NFU0 1-684)
Experiment: EMSA

Chain of dFMRP (dFmr1-PD) (Q9NFU0 whole entry): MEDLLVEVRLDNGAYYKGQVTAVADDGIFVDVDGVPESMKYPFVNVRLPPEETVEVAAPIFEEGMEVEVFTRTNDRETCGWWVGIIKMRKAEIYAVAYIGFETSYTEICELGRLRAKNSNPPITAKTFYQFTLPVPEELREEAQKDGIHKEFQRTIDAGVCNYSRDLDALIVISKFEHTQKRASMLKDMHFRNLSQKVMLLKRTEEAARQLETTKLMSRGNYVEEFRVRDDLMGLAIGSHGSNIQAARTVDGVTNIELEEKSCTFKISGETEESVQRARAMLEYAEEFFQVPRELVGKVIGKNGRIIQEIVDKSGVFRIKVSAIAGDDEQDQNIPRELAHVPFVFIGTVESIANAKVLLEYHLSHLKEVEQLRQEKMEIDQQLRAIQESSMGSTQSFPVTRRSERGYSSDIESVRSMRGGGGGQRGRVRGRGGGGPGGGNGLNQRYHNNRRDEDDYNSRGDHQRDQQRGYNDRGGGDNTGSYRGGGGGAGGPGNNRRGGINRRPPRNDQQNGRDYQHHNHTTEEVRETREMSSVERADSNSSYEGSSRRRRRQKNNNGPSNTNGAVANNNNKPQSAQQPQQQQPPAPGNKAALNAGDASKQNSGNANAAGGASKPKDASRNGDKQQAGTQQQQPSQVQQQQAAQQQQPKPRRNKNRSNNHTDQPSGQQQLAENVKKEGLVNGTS

AAAAAAAAAAAAAA (ssRNA) [A14 control RNA]
binding result: no binding

Source: publication PMC11352701
